# Laboratory results from US11078465B2, “Alcohol dehydrogenase mutant and application thereof in synthesis of diaryl chiral alcohols” (Jiangnan University, priority 2018, dated 2021).
# Positions count from the first letter of the chain named. In names and notes the source's numbering stands. Several values for one entry are separate records, joined by “and”; a condition that tells them apart may be missing. Equal values may be shown once. Entries after “also recorded” stand apart in the source; their conditions may differ.
# B1: E214G/S237C: glycine for glutamate at position 214 and cysteine for serine at position 237 of SEQ ID No. 2 (protein)
# chain: MSVLISGASGYIAKHIVRVLLEQNYKVIGTVRSQDKADKLLKQYNNPNLSYEIVPEIANLDAFDDIFKKHGKEIKYVIHAASPVNFGAKDLEKDLVIPAINGTKNMFEAIKKYAPDTVERVVMTASYASIMTPHRQNDPTLTLDEETWNPVTEENAYENVFTAYCASKTFAEKEAWKFVKENSDAVKFKLTTIHPSFVFGPQNFDEDVTKKLNGTCEIINGLLHAPFDTKVEKTHFCQFIDVRDVAKTHVLGFQKDELINQRLLLCNGAFSQQDIVNVFNEDFPELKGQFPPEDKDTDLNKGVTGCKIDNEKTKKLLAFEFTPFHKTIHDTVYQILHKEGRV
# modifications: Protein translated from synthetic DNA
# B2: E214S: serine for glutamate at position 214 of the alcohol dehydrogenase of SEQ ID No. 2 (protein)
# chain: B1 chain with G214S, C237S
# modifications: Protein translated from synthetic DNA
# B3: E214I: isoleucine for glutamate at position 214 of the alcohol dehydrogenase of SEQ ID No. 2 (protein)
# chain: B1 chain with G214I, C237S
# modifications: Protein translated from synthetic DNA
# B4: E214N: asparagine for glutamate at position 214 of the alcohol dehydrogenase of SEQ ID No. 2 (protein)
# chain: B1 chain with G214N, C237S
# modifications: Protein translated from synthetic DNA
# B5: E214G: glycine for glutamate at position 214 of the alcohol dehydrogenase of SEQ ID No. 2 (protein)
# chain: B1 chain with C237S
# modifications: Protein translated from synthetic DNA
# B6: S237C: alcohol dehydrogenase mutant obtained by random mutation screening (protein)
# chain: B1 chain
# modifications: Protein translated from synthetic DNA
# notes: alcohol dehydrogenase mutant obtained by random mutation screening
# B7: E214R: arginine for glutamate at position 214 of the alcohol dehydrogenase of SEQ ID No. 2 (protein)
# chain: B1 chain with G214R, C237S
# modifications: Protein translated from synthetic DNA
# B8: E214Q: glutamine for glutamate at position 214 of the alcohol dehydrogenase of SEQ ID No. 2 (protein)
# chain: B1 chain with G214Q, C237S
# modifications: Protein translated from synthetic DNA
# B9: S237A: alcohol dehydrogenase mutant obtained by random mutation screening (protein)
# chain: B1 chain with G214I, C237A
# modifications: Protein translated from synthetic DNA
# notes: as for B6
# B10: E214V: valine for glutamate at position 214 of the alcohol dehydrogenase of SEQ ID No. 2 (protein)
# chain: B1 chain with G214V, C237S
# modifications: Protein translated from synthetic DNA
# Tests used:
# Assay type in all cases: biochemical
# [1] = Asymmetric reduction in 20 mL biocatalytic system, conversion
# Description: (§1) In an embodiment of the present disclosure, a chromatographic analysis method is as follows: 100 μL of reactant liquid is taken, 500 μL of ethyl acetate is added, shaking is performed for 1-2 min, centrifugation is performed at 12,000 rpm for 2-5 min, supernatant liquid is taken into a centrifuge tube, after an organic phase naturally volatilizes completely, 500 μL of chromatographically pure ethanol is added, and chiral liquid chromatography and gas chromatography are performed to analyze the transformation rate and the ee value.
# The pure (R)-CPMA were recrystallized from ethyl acetate at 4° C. and gave 99.9% optical purity. […] Besides, the conversion cannot reach 100% with 24 h in the asymmetric reduction of (4-bromophenyl)-(phenyl)-methanone and p-nitrobenzophenone due to the low enzyme activity.
# [2] = Stereoselectivity on different substrates; details: configuration in brackets
# Description: as §1
# (§2) Method for determining optical purity ee:
# (§3) As: molar concentration of (S)-CPMA obtained by liquid chromatography; and AR: molar concentration of (R)-CPMA obtained by liquid chromatography.
# (§4) The reduction on prochiral carbonyl compounds by the alcohol dehydrogenase mutants obtained in Example 3 was studied. The pro-chiral carbonyl compounds include (4-chlorophenyl)-(pyridin-2-yl)-methanone (CPMK), phenyl-(pyridin-2-yl)-methanone, (4-chlorophenyl)-(phenyl)-methanone, (4-bromophenyl)(phenyl)methanone, (4-fluorophenyl)(phenyl)methanone, (4-methoxyphenyl)-(phenyl)-methanone, (4-nitrophenyl)(phenyl)methanone, 1-(pyridin-2-yl)ethanone, acetophenone, 4′-Chloroacetophenone, 4-chlorophenacyl chloride, ethyl 2-oxo-4-phenylbutanoate (OPBE), ethyl 4-chloro-3-oxobutanoate, and methyl 2-oxo-2-phenylacetate.
# [3] = Substrate specificity, specific activity
# Description: (§5) Adopting a total reaction system of 200 μL, including: 1.0 mM NADPH, 1.0 mM substrate CPMK and sodium phosphate buffer (PBS, 100 mM, pH 7.0), fully and evenly mixing, maintaining at 30° C. for 2 min, adding an appropriate amount of enzyme solution, and detecting the change in light absorption at 340 nm.
# (§6) The enzyme activity was calculated by the following formula: Enzyme activity (U)=EW×V×10^3/(6220×I);
# (§7) in the formula, EW is the change in absorbance at 340 nm in 1 min; V is the volume of a reaction solution in mL; 6220 is the molar extinction coefficient of NADPH in L/mol·cm); and 1 is the optical path distance in cm. One activity unit (U) corresponds to the amount of enzyme required to catalyze the oxidation of 1 μmol NADPH per minute under the above conditions.
# as §4
# [4] = Stereoselectivity (ee) of CPMK reduction, chiral liquid chromatography; details: for e.e. / ee %: product configuration in brackets
# Description: as §1, §2, §3
# [5] = Stereoselectivity on different substrates; details: for Stereoselectivity (ee): configuration in brackets
# Description: as §1, §2, §3, §4
# All the products above were recrystallized from ethyl acetate and gave more than 99.9% optical purity.
# [6] = Kinetic analysis of alcohol dehydrogenase and mutants (NADPH oxidation, 340 nm, double reciprocal curve); details: substrate CPMK
# Description: as §5, §6, §7
# A column used for purification was a nickel affinity column HisTrap FF crude, and purification was achieved through affinity chromatography using a histidine tag on recombinant protein. The nickel column was equilibrated with a solution A first, a crude enzyme solution was loaded, a penetrating peak was further eluted off using the solution A, and after equilibrium, a solution B (20 mM sodium phosphate, 500 mM NaCl, and 1000 mM imidazole, pH 7.4) was used for gradient elution to elute off the recombinant protein bound to the nickel column, so as to obtain the recombinant alcohol dehydrogenase mutant. The purified protein was subjected to activity measurement (CPMK as substrate, and NADPH as coenzyme) and SDS-PAGE analysis. […] The purified alcohol dehydrogenase protein was then replaced into a Tris-HCl (100 mM, pH 7.0) buffer using a Hi Trap Desalting column (GE Healthcare).
# The activity of KpADH at different substrate concentrations and coenzyme concentrations was determined, and a double reciprocal curve was made based on the reciprocal of activity and substrate concentration to calculate kinetic parameters.
molecule,measurement,setting,value
B1,Conversion rate,"[1]; acetophenone 100 mM, 1 h",42%
same,Conversion rate,"[1]; acetophenone 100 mM, 2 h",53%
same,Conversion rate,"[1]; acetophenone 100 mM, 3 h",65%
same,Conversion rate,"[1]; acetophenone 100 mM, 4 h",77%
same,Conversion rate,"[1]; acetophenone 100 mM, 6 h",95%
same,Conversion rate,"[1]; acetophenone 100 mM, 8 h",99.0%
same,Conversion rate,"[1]; acetophenone 100 mM, 12 h",>99.9%
same,Conversion rate,"[1]; acetophenone 100 mM, 24 h",>99.9%
same,Conversion rate,"[1]; acetophenone 200 mM, 1 h",35%
same,Conversion rate,"[1]; acetophenone 200 mM, 2 h",49%
same,Conversion rate,"[1]; acetophenone 200 mM, 3 h",60%
same,Conversion rate,"[1]; acetophenone 200 mM, 4 h",72%
same,Conversion rate,"[1]; acetophenone 200 mM, 6 h",85.9%
same,Conversion rate,"[1]; acetophenone 200 mM, 8 h",93.6%
same,Conversion rate,"[1]; acetophenone 200 mM, 12 h",99.2%
same,Conversion rate,"[1]; acetophenone 200 mM, 24 h",99.7%
same,Conversion rate,"[1]; acetophenone 500 mM, 1 h",20.9%
same,Conversion rate,"[1]; acetophenone 500 mM, 2 h",34.5%
same,Conversion rate,"[1]; acetophenone 500 mM, 3 h",49.6%
same,Conversion rate,"[1]; acetophenone 500 mM, 4 h",62.6%
same,Conversion rate,"[1]; acetophenone 500 mM, 6 h",77.9%
same,Conversion rate,"[1]; acetophenone 500 mM, 8 h",88.6%
same,Conversion rate,"[1]; acetophenone 500 mM, 12 h",92.9%
same,Conversion rate,"[1]; acetophenone 500 mM, 24 h",99.2%
same,Stereoselectivity (ee),[2]; substrate [drawing 13],51.9 (R)
same,Stereoselectivity (ee),"[2]; substrate [drawing 14], likely CPMK (values partly match Table 4)",43.2 (S)
same,Stereoselectivity (ee),[2]; substrate [drawing 15],86.2 (R)
same,Stereoselectivity (ee),[2]; substrate [drawing 18],93.8 (S)
same,specific activity,[3]; substrate [drawing 1],0.15 U/mg
same,specific activity,[3]; substrate [drawing 2],0.07 U/mg
same,specific activity,[3]; substrate [drawing 3],0.12 U/mg
same,specific activity,[3]; substrate [drawing 4],3.10 U/mg
same,specific activity,[3]; substrate [drawing 5],4.84 U/mg
same,specific activity,"[3]; substrate [drawing 6], 4-chlorophenacyl chloride",9.81 U/mg
same,specific activity,[3]; substrate [drawing 7],10.26 U/mg
same,specific activity,[3]; substrate [drawing 8],21.25 U/mg
same,specific activity,"[3]; substrate [drawing 9], ethyl 4-chloro-3-oxobutanoate",1.55 U/mg
same,configuration of product / stereoselectivity in words,[4],inversion from the R configuration to the S configuration; also recorded: (S)-CPMA
same,"ee value, (S)-CPMA",[4]; S configuration product,75.5%
same,e.e.,[4],75.5 (S)
same,Stereoselectivity (ee),"[5]; substrate [drawing 10], acetophenone",99.5 (R)
same,Stereoselectivity (ee),"[5]; substrate [drawing 11], 4-chloroacetophenone",93.8 (R)
same,Stereoselectivity (ee),"[5]; substrate [drawing 12], 4-chlorobenzoyl chloride",96.2 (R)
same,Stereoselectivity (ee),"[5]; substrate [drawing 16], (4-bromophenyl)-(phenyl)-methanone",91.4 (R)
same,Stereoselectivity (ee),"[5]; substrate [drawing 17], p-nitrobenzophenone",93.3 (R)
same,ee value,"[5]; substrate acetophenone, R configuration products",99.5%
B2,Kcat,[6],11.86 ± 0.48 s⁻¹
same,Km,[6],540 ± 70 µM
same,Vmax,[6],17.79 ± 0.88 µM/min/mg
same,ee %,[4],14.2 (R) %
B3,Kcat,[6],8.77 ± 0.23 s⁻¹
same,Km,[6],410 ± 40 µM
same,Vmax,[6],13.15 ± 0.43 µM/min/mg
same,ee %,[4],93.0 (R) %
B4,Kcat,[6],22.90 ± 1.12 s⁻¹
same,Km,[6],420 ± 60 µM
same,Vmax,[6],34.35 ± 2.05 µM/min/mg
same,ee %,[4],58.1 (R) %
B5,Kcat,[6],5.5 ± 0.10 s⁻¹
same,Km,[6],250 µM
same,Vmax,[6],8.26 ± 0.15 µM/min/mg
same,configuration of product / stereoselectivity in words,[4],inversion from an R configuration to an S configuration
same,e.e.,[4],25.6 (S)
same,ee %,[4],25.6 (S) %
B6,e.e.,[4],27 (R)
B7,Kcat,[6],15.85 ± 0.49 s⁻¹
same,Km,[6],980 ± 80 µM
same,Vmax,[6],23.77 ± 0.90 µM/min/mg
same,ee %,[4],42.5 (R) %
B8,Kcat,[6],16.26 ± 1.33 s⁻¹
same,Km,[6],1300 ± 200 µM
same,Vmax,[6],24.4 ± 0.20 µM/min/mg
same,ee %,[4],58.5 (R) %
B9,e.e.,[4],96.1 (R)
B10,Kcat,[6],8.91 ± 0.48 s⁻¹
same,Km,[6],420 µM
same,Vmax,[6],13.36 ± 0.89 µM/min/mg
same,"ee value, (R)-CPMA",[4]; R configuration product,91% and 95.3%
same,ee %,[4],95.3 (R) %
